Numbering of substitutions follows the chain as printed. Names and notes keep the numbering of the source.

The target in assay [1] is T1, muscle actin (UniProt P68135 1-377, labeled with pyrene). As to the kind of experiment: apparent critical concentration for actin polymerization at steady state.
Assay [2] deals with T1, muscle actin. As to the kind of experiment: seeded actin assembly kinetics.
For assay [3], the target named is T1, muscle actin. The experiment in a line: apparent critical concentration for actin polymerization at steady state. The source holds these as a separate data set.

B1: wild-type yeast capping protein (Cap1/Cap2) (complex)
chain 1: MSSSKFEEVINKIINDSPPGELREVYDDLIKITSENSKNTILDAIENYNVQNCIPIEVNGNSVIISKYNKEGAKFFDPVNSVIFSVNHLERKGLDIEPYEFTHAKIEKGQLKELHDKLHEYLLQSFPGDVSFAVYPVPEEISKISIIIVSTKYNPNNFWNGHWRSSYIYDLETRELSGQISTQVHYYEDGNVSFQSGKDINQSNVDDVVCTIRDIETNFENDLDLSFFDLNEKQFKALRRRLPVTRSKINWGSAIGSYRLGKNAAEGK
chain 2: MSDAQFDAALDLLRRLNPTTLQENLNNLIELQPNLAQDLLSSVDVPLSTQKDSADSNREYLCCDYNRDIDSFRSPWSNTYYPELSPKDLQDSPFPSAPLRKLEILANDSFDVYRDLYYEGGISSVYLWDLNEEDFNGHDFAGVVLFKKNQSDHSNWDSIHVFEVTTSPSSPDSFNYRVTTTIILHLDKTKTDQNSHMMLSGNLTRQTEKDIAIDMSRPLDVIFTSHVANLGSLIEDIESQMRNLLETVYFEKTRDIFHQTKNAAIASSAEEANKDAQAEVIRGLQSL
For orientation: koff means a measure of how fast the partners let go of each other. A lower koff goes with a long-lived complex. Usually kon stands for the rate constant with which the complex forms. Lower therefore signals slower complex formation. As to B1, in the assay with muscle actin [1], the Kd is 4 nM. In the assay with muscle actin [2], this molecule displayed a Kd of 1.2 nM, a koff of 0.00156 s⁻¹ and a kon of 1.16e+06 M⁻¹ s⁻¹.

B2: Cap1/Cap2Δ(261–287) (complex)
chain 1: B1 chain 1
chain 2: MSDAQFDAALDLLRRLNPTTLQENLNNLIELQPNLAQDLLSSVDVPLSTQKDSADSNREYLCCDYNRDIDSFRSPWSNTYYPELSPKDLQDSPFPSAPLRKLEILANDSFDVYRDLYYEGGISSVYLWDLNEEDFNGHDFAGVVLFKKNQSDHSNWDSIHVFEVTTSPSSPDSFNYRVTTTIILHLDKTKTDQNSHMMLSGNLTRQTEKDIAIDMSRPLDVIFTSHVANLGSLIEDIESQMRNLLETVYFEKTRDIFHQT
Turning to B2, the Kd with muscle actin [1] worked out at 25 nM. In the assay with muscle actin [2], this molecule showed a Kd of 7.8 nM, a koff of 0.0163 s⁻¹ and a kon of 2.09e+06 M⁻¹ s⁻¹.

B3: Cap1/Cap2Δ(264–287) (complex)
chain 1: B1 chain 1
chain 2: MSDAQFDAALDLLRRLNPTTLQENLNNLIELQPNLAQDLLSSVDVPLSTQKDSADSNREYLCCDYNRDIDSFRSPWSNTYYPELSPKDLQDSPFPSAPLRKLEILANDSFDVYRDLYYEGGISSVYLWDLNEEDFNGHDFAGVVLFKKNQSDHSNWDSIHVFEVTTSPSSPDSFNYRVTTTIILHLDKTKTDQNSHMMLSGNLTRQTEKDIAIDMSRPLDVIFTSHVANLGSLIEDIESQMRNLLETVYFEKTRDIFHQTKNA
Turning to B3, in the assay with muscle actin [1], the Kd worked out at 25 nM. In the assay with muscle actin [2], this molecule showed a Kd of 8 nM, a koff of 0.017 s⁻¹ and a kon of 2.1e+06 M⁻¹ s⁻¹.

B4: Cap1 (W251A)/Cap2 (complex)
chain 1: B1 chain 1 with W251A
chain 2: B1 chain 2
For B4, the Kd in the assay with muscle actin [1] is 250 nM. In the assay with muscle actin [2], this molecule came in with a Kd of 91 nM, a koff of 0.0259 s⁻¹ and a kon of 300000 M⁻¹ s⁻¹.

B5: Cap1 (R239A)/Cap2 (complex)
chain 1: B1 chain 1 with R239A
chain 2: B1 chain 2
As for B5, the Kd with muscle actin [1] stood at 400 nM. In the assay with muscle actin [2], this molecule returned a Kd of 176 nM, a koff of 0.0275 s⁻¹ and a kon of 156000 M⁻¹ s⁻¹.

B6: Cap1Δ(239–268)/Cap2Δ(264–287) (complex)
chain 1: MSSSKFEEVINKIINDSPPGELREVYDDLIKITSENSKNTILDAIENYNVQNCIPIEVNGNSVIISKYNKEGAKFFDPVNSVIFSVNHLERKGLDIEPYEFTHAKIEKGQLKELHDKLHEYLLQSFPGDVSFAVYPVPEEISKISIIIVSTKYNPNNFWNGHWRSSYIYDLETRELSGQISTQVHYYEDGNVSFQSGKDINQSNVDDVVCTIRDIETNFENDLDLSFFDLNEKQFKAL
chain 2: B3 chain 2
In the assay with muscle actin [2], B6 registered a Kd of 33400 nM, a koff of 0.012 s⁻¹ and a kon of 370 M⁻¹ s⁻¹.

B7: Cap1(Δ239–268)/Cap2(Δ261–287) (complex)
chain 1: B6 chain 1
chain 2: B2 chain 2
Regarding B7, in the assay with muscle actin [3], the Kd was at least 100 µM.

Values taken from PMC2171992 (The Journal of Cell Biology, 2004).
